Experimental data reported in the supplement of paper PMC6757056.
± gives the standard deviation of the averaged measurements.

B1: library; a variant is named by its letters at N, in order (parent)
chain: GCUGUCACCGGUGCUUGGUACGUUAUAUUCAGCCGGUCUGAUGAGUCUNNNNNNAGACGAAACAGC

Columns and labels:
(6R,S)-folinic acid [1] = variants of: B1; test: FACS-Seq fitted mean relative fluorescence mCherry/BFP without ligand (log10 relative fluorescence); HEK293T overexpressing SLC46A1; higher = higher reporter protein expression; conditions: without (6R,S)-folinic acid; ligand present: no
Procedure, shortened: (§1)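 The ribozyme switch sat in an mCherry reporter, delivered by lentivirus into HEK293T libraries along with an EF1α-BFP marker. Enriched cells were incubated 48 h with or without ligand, sorted into 6 bins by mCherry/BFP, and bin genomic DNA was PCR-amplified, barcoded and MiSeq-sequenced. Fluorescence equals the fitted normal mean of the bin counts after normalization. Those log10(mCherry/BFP) means were scaled to five spiked-in control ribozymes.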

(6R,S)-folinic acid [2] = variants of: B1; test: normalized RNA/DNA level without ligand (relative to sTRSVctl = 100) (log10 (% of sTRSVctl)); HEK293T overexpressing SLC46A1; higher = less ribozyme self-cleavage, higher mRNA level; conditions: without (6R,S)-folinic acid; ligand present: no
Procedure, shortened: (§2)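 Ribozyme switch library plasmids linked to reporters were introduced into HEK293T cells at 4 µg per 6-well well, with ligand, if any, added 1 h before. Total RNA was extracted with EDTA 72 h later, reverse-transcribed, amplified, barcoded and sequenced. RNA level was computed from RNA over DNA reads relative to a spiked-in non-cleaving sequence or the top sequences, then scaled and log-transformed. The top set was 25 sequences, values were ×100 and log10, and the cutoff was ≥100 DNA reads.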

(6R,S)-folinic acid [3] = variants of: B1; test: FACS-Seq fitted mean relative fluorescence mCherry/BFP with ligand (log10 relative fluorescence); HEK293T overexpressing SLC46A1; ligand concentration (+) FACS-Seq: 6 mM; higher = higher reporter protein expression; conditions: with (6R,S)-folinic acid; ligand present: yes
Procedure, shortened: as §1

(6R,S)-folinic acid [4] = variants of: B1; test: normalized RNA/DNA level with ligand (relative to sTRSVctl = 100) (log10 (% of sTRSVctl)); HEK293T overexpressing SLC46A1; ligand concentration (+) RNA-Seq: 6 mM; higher = less ribozyme self-cleavage, higher mRNA level; conditions: with (6R,S)-folinic acid; ligand present: yes
Procedure, shortened: as §2

Variant	FACS-Seq fitted mean (log10) ((6R,S)-folinic acid [1])	normalized RNA/DNA level without ligand (log10) ((6R,S)-folinic acid [2])	FACS-Seq fitted mean (log10) ((6R,S)-folinic acid [3])	normalized RNA/DNA level with ligand (log10) ((6R,S)-folinic acid [4])
UAGUUG	0.194 ± 0.067	1.768 ± 0.016	0.229 ± 0.0032	1.96 ± 0.021
CAUAAA	0.548 ± 0.05	1.9396 ± 0.0016	0.402 ± 0.075	1.96 ± 0.033
AAUAAA	-0.274 ± 0.037	1.971 ± 0.009	-0.301 ± 0.1	2 ± 0.025
GAUAAA	0.3694 ± 0.0011	1.956 ± 0.0085	0.397 ± 0.027	2 ± 0.034
UAUAAA	0.216 ± 0.075	1.92 ± 0.0034	0.0605 ± 0.19	1.97 ± 0.022
CAUAAC	0.339 ± 0.16	1.973 ± 0.0067	0.355 ± 0.045	1.97 ± 0.038
AAUAAC	0.221 ± 0.049	1.979 ± 0.0049	0.377 ± 0.048	1.99 ± 0.035
GAUAAC	0.223 ± 0.036	1.972 ± 0.012	0.5 ± 0.022	2.01 ± 0.014
AAUAAG	0.271 ± 0.2	1.9 ± 0.024	0.323 ± 0.13	1.98 ± 0.038
UAUAAG	0.158 ± 0.15	1.688 ± 0.0045	0.476 ± 0.26	1.93 ± 0.027
CAUAAU	0.15 ± 0.15	1.955 ± 0.011	0.294 ± 0.038	1.997 ± 0.013
AAUAAU	0.5328 ± 0.0041	1.968 ± 0.0071	0.56 ± 0.14	2.003 ± 0.011
GAUAAU	0.0792 ± 0.026	1.97 ± 0.02	0.23 ± 0.02	2.01 ± 0.037
UAUAAU	0.283 ± 0.048	1.941 ± 0.0058	0.412 ± 0.033	1.996 ± 0.016
GAUACA	0.251 ± 0.036	1.974 ± 0.0043	0.585 ± 0.09	1.98 ± 0.047
AAUACC	0.72 ± 0.071	2.028 ± 0.004	0.469 ± 0.062	2.03 ± 0.031
UAUACC	0.255 ± 0.057	2.011 ± 0.0036	0.126 ± 0.21	2.018 ± 0.014
GAUACG	0.356 ± 0.069	1.9665 ± 0.00032	0.274 ± 0.0064	2 ± 0.0056
UAUACG	0.496 ± 0.089	1.76 ± 0.018	0.905 ± 0.26	1.96 ± 0.02
AAUACU	0.3 ± 0.014	1.995 ± 0.017	0.384 ± 0.13	1.99 ± 0.026
UAUACU	0.4 ± 0.2	1.9765 ± 0.0012	0.253 ± 0.07	1.99 ± 0.015
AAUAGA	0.354 ± 0.04	1.96 ± 0.024	0.344 ± 0.043	2.01 ± 0.034
GAUAGA	0.454 ± 0.051	1.959 ± 0.0082	0.537 ± 0.22	2 ± 0.021
UAUAGA	0.233 ± 0.082	1.911 ± 0.003	0.417 ± 0.064	1.989 ± 0.013

Variant	FACS-Seq fitted mean (log10) ((6R,S)-folinic acid [1])	normalized RNA/DNA level without ligand (log10) ((6R,S)-folinic acid [2])	FACS-Seq fitted mean (log10) ((6R,S)-folinic acid [3])	normalized RNA/DNA level with ligand (log10) ((6R,S)-folinic acid [4])
GAUAGC	0.145 ± 0.061	1.962 ± 0.017	0.257 ± 0.081	2.022 ± 0.015
UAUAGC	0.469 ± 0.011	1.943 ± 0.018	0.395 ± 0.19	1.98 ± 0.036
AAUAGG	0.164 ± 0.037	1.877 ± 0.0074	0.334 ± 0.2	1.99 ± 0.028
GAUAGG	0.0382 ± 0.037	1.921 ± 0.013	0.234 ± 0.004	2.01 ± 0.022
UAUAGG	0.0298 ± 0.024	1.58 ± 0.029	0.514 ± 0.24	1.92 ± 0.02
AAUAGU	0.361 ± 0.12	1.928 ± 0.0047	0.623 ± 0.097	1.978 ± 0.018
GAUAGU	0.846 ± 0.085	1.963 ± 0.018	0.563 ± 0.078	2 ± 0.022
AAUAUA	0.602 ± 0.02	1.95 ± 0.0055	0.4362 ± 0.00063	1.99 ± 0.039
GAUAUA	0.295 ± 0.015	1.96 ± 0.005	0.482 ± 0.11	2 ± 0.028
CAUAUC	-0.161 ± 0.056	2.078 ± 0.0032	-0.426 ± 0.011	2.03 ± 0.034
AAUAUC	0.448 ± 0.061	2.03 ± 0.042	0.348 ± 0.12	2.02 ± 0.048
CAUAUG	0.419 ± 0.028	2.026 ± 0.0042	0.496 ± 0.28	2.01 ± 0.023
AAUAUG	0.207 ± 0.053	1.895 ± 0.0025	0.137 ± 0.061	1.99 ± 0.034
GAUAUG	0.0919 ± 0.075	1.919 ± 0.005	0.0285 ± 0.14	2 ± 0.038
UAUAUG	0.194 ± 0.045	1.75 ± 0.018	0.678 ± 0.12	1.97 ± 0.035
CAUAUU	0.434 ± 0.11	1.982 ± 0.0059	0.246 ± 0.17	1.98 ± 0.025
AAUAUU	0.567 ± 0.082	1.981 ± 0.011	0.295 ± 0.01	1.99 ± 0.029
UAUCAA	0.142 ± 0.016	1.957 ± 0.019	0.277 ± 0.084	2 ± 0.053
AAUCAG	0.0995 ± 0.041	1.969 ± 0.0032	0.228 ± 0.25	2.02 ± 0.045
UAUCAG	0.285 ± 0.25	1.84 ± 0.024	0.328 ± 0.29	1.95 ± 0.025
UAUCAU	0.312 ± 0.043	1.954 ± 0.0086	-0.0472 ± 0.12	1.99 ± 0.041
AAUCCA	0.639 ± 0.012	1.995 ± 0.015	0.486 ± 0.014	1.99 ± 0.029
UAUCCG	0.17 ± 0.01	1.84 ± 0.017	0.376 ± 0.25	1.993 ± 0.019
AAUCCU	0.552 ± 0.046	2.051 ± 0.0088	0.476 ± 0.068	2.06 ± 0.019

Variant	FACS-Seq fitted mean (log10) ((6R,S)-folinic acid [1])	normalized RNA/DNA level without ligand (log10) ((6R,S)-folinic acid [2])	FACS-Seq fitted mean (log10) ((6R,S)-folinic acid [3])	normalized RNA/DNA level with ligand (log10) ((6R,S)-folinic acid [4])
CAUCGC	0.37 ± 0.072	2.019 ± 0.0067	0.228 ± 0.031	1.99 ± 0.041
AAUCGC	0.375 ± 0.075	2.027 ± 0.017	0.448 ± 0.18	2.01 ± 0.029
AAUCGG	0.494 ± 0.13	1.94 ± 0.017	0.573 ± 0.06	2.01 ± 0.027
UAUCGG	0.113 ± 0.039	1.69 ± 0.028	0.6479 ± 0.00075	1.94 ± 0.028
AAUCUA	0.267 ± 0.13	1.99 ± 0.013	0.439 ± 0.27	2.014 ± 0.013
CAUCUC	0.717 ± 0.072	2.111 ± 0.017	0.619 ± 0.56	2.08 ± 0.072
AAUCUU	0.524 ± 0.12	2.002 ± 0.013	0.276 ± 0.024	2.013 ± 0.017
CAUGAA	-0.00657 ± 0.027	1.954 ± 0.014	-0.0505 ± 0.07	1.98 ± 0.045
AAUGAA	0.442 ± 0.1	1.956 ± 0.0073	0.46 ± 0.055	2 ± 0.029
GAUGAA	0.212 ± 0.041	1.966 ± 0.012	0.37 ± 0.0079	1.989 ± 0.017
GAUGAC	0.579 ± 0.11	1.95 ± 0.025	0.593 ± 0.085	2.01 ± 0.043
UAUGAC	0.193 ± 0.17	1.971 ± 0.01	0.413 ± 0.083	2 ± 0.053
GAUGAG	0.483 ± 0.0054	1.858 ± 0.0066	0.624 ± 0.12	1.978 ± 0.015
AAUGAG	0.455 ± 0.051	1.778 ± 0.0047	0.7222 ± 0.0013	1.97 ± 0.021
UAUGAG	0.159 ± 0.026	1.609 ± 0.0041	0.709 ± 0.075	1.9 ± 0.045
GAUGAU	0.196 ± 0.072	1.935 ± 0.019	0.199 ± 0.049	1.98 ± 0.034
UAUGAU	0.263 ± 0.038	1.911 ± 0.013	0.486 ± 0.099	1.97 ± 0.027
GAUGCA	0.5601 ± 0.0038	2.009 ± 0.0054	0.5189 ± 0.004	2.04 ± 0.035
AAUGCA	0.514 ± 0.0055	1.99 ± 0.03	0.45 ± 0.072	2.02 ± 0.034
GAUGCG	0.444 ± 0.16	1.941 ± 0.011	0.693 ± 0.15	2.02 ± 0.07
AAUGCG	0.217 ± 0.13	1.839 ± 0.018	0.405 ± 0.11	2 ± 0.03
UAUGCG	0.276 ± 0.043	1.7391 ± 0.00075	0.61 ± 0.063	1.961 ± 0.014
UAUGCU	-0.0167 ± 0.051	2.007 ± 0.0048	0.129 ± 0.27	2.04 ± 0.029
UAUGGA	0.416 ± 0.029	1.828 ± 0.012	0.472 ± 0.013	1.98 ± 0.021
